Results: patent US9844563B2, “Compositions, kits, and methods to induce acquired cytoresistance using stress protein inducers” (FRED HUTCHINSON CANCER RESEARCH CENTER, priority 2014, dated 2017)
Where “and” joins values, the source holds several entries; their conditions need not be identical. Equal values may be shown once.

Tests used:
[1] = system: HK-2 cells; assay: HK-2 cell injury by MTT assay; format: cell-based; conditions: 10 mg/mL, 18 hr incubation, compared to control incubated cells
Description: HK-2 cells (a proximal tubule cell line derived from normal human kidney) were incubated in keratinocyte serum free medium either under normal (control) conditions or in the presence of 10 mg/mL horse skeletal muscle myoglobin or nitrited myoglobin (produced by equimolar Na nitrite addition to 10 mg/ml myoglobin). After 18 hr incubations, the severity of cell injury (% cell death) was assessed by MTT assay. Myoglobin induced 40% cell death (40% decrease in MTT cell uptake), compared to control incubated cells. Nitrite binding to myoglobin reduced cell death by 75%. Thus, nitrite binding is able to reduce myoglobin's cytotoxic effects.

[2] = system: Haptoglobin; assay: Haptoglobin protein expression after SQ myoglobin with or without PEG; format: in vivo, mice; conditions: 4 hour time point after SQ injection
Description: Myoglobin+PEG: To a stock solution of 20 mg/ml Mgb in PBS was added 100 mg/ml of PEG-6000; […]. This was administered as a subcutaneous injection in the dorsal neck (250 ul total injection). For combined Mgb/PEG+SnPP, SnPP was added to the above in a concentration of 3 mg/ml.

[3] = system: HO-1 mRNA; assay: Renal cortical HO-1 mRNA (RT-PCR) after IV myoglobin, SnPP or both; format: in vivo, mice
Excerpt: (§1) The Glycerol Model of AKI. This is a widely used model of rhabdomyolysis-induced AKI that has been employed worldwide for 50 years. The model was used to test whether prophylactic interventions confer protection against AKI. Basically, the protocol is as follows: Male CD-1 mice (35-45 grams), obtained from Charles River Laboratories, Wilmington, Mass. were studied. Mice were maintained under standard vivarium conditions and generally housed for 1-3 weeks prior to study. The mice were placed in a cylindrical restraining cage, and then were given a tail vein injection of the test substances (see below) or test substance vehicle. The mice were then returned to their cages. Eighteen hours (hrs) later, the mice were briefly anesthetized by isoflurane inhalation, and given an intramuscular injection of hypertonic (50%) glycerol in a dose of 9 ml/Kg body weight. The dose is divided in two, with half injected into the muscle of each of the hind limbs. The mice were then returned to their cages. Eighteen hrs later, the mice were deeply anesthetized with pentobarbital (50-100 mg/Kg), the abdominal cavity was opened through a midline abdominal incision, a blood sample was obtained from the abdominal vena cava and the kidneys were resected. A kidney cross section was obtained and fixed in formalin for subsequent histologic analysis. The terminal blood samples were analyzed for BUN and creatinine, using commercially available assay kits. The remaining kidney tissue was subjected to cortical dissection, and the cortical tissues were then extracted for protein and RNA. The protein samples were saved for analysis of HO-1 levels, and the RNA samples were subjected to RT-PCR to quantify HO-1 mRNA as well as levels of other stress gene mRNAs (e.g. NGAL, haptoglobin, hemopexin, hepicidin).
(§2) Myoglobin+SnPP: To 5 mg of dry myoglobin was added 0.9 ml of PBS+0.1 ml of a stock SnPP solution (50 umole/ml). The resulting final concentrations were 5 mg/ml myoglobin+5 umoles/ml of SnPP. The tail vein was injected with 200 ul of this solution, which equals 1 mg myoglobin+1 umole SnPP. […]
Four hr post myoglobin vs myoglobin+SnPP vs SnPP alone experiments. To confirm that the myoglobin+SnPP has a synergistic effect in inducing HO-1 mRNA and HO-1 protein levels, each of the above combinations have been administered alone via tail vein injection. Four hrs later, the mice were sacrificed as noted above and the kidneys were harvested for assessment of HO-1 mRNA and protein levels. For additional information regarding methods, see Zager et al., Am J Physiol Renal Physiol. 2014 Jul. 30. Pii.

[4] = set-up: species or system mice; conditions: mouse, in vivo, iv
[5] = system: HO-1; assay: Renal cortical HO-1 protein (ELISA) after IV myoglobin, SnPP or both; format: in vivo, mice; conditions: 1 mg Myoglobin, 1 μmole SnPP
Excerpt: as §1, §2
Four hr post myoglobin vs myoglobin+SnPP vs SnPP alone experiments. To confirm that the myoglobin+SnPP has a synergistic effect in inducing HO-1 mRNA and HO-1 protein levels, each of the above combinations have been administered alone via tail vein injection. […] For additional information regarding methods, see Zager et al., Am J Physiol Renal Physiol. 2014 Jul. 30. Pii.

B1: myoglobin (protein, listed as Homo Sapiens)
chain: MGLSDGEWQLVLNVWGKVEADIPGHGQEVLIRLFKGHPETLEKFDKFKHLKSEDEMKASEDLKKHGATVLTALGGILKKKGHHEAEIKPLAQSHATKHKIPVKYLEFISECIIQVLQSKHPGDFGADAQGAMNKALELFRKDMASNYKELGFQG
notes: Lyophilized horse skeletal muscle myoglobin (Sigma Chemicals) used as the test agent
- cell death (decrease in MTT cell uptake) [1]: 40%
- Haptoglobin Protein Expression [2]: 32.7 ± 6.3 ng/mg protein
- HO-1 mRNA induction (HO-1/GAPDH mRNA), Average ([3]; 4 hrs post IV injection, average): 3.93 HO-1/GAPDH mRNA
- HO-1 mRNA induction (HO-1/GAPDH mRNA), individual mice ([3]; 4 hrs post IV injection, single animals): 7.78 HO-1/GAPDH mRNA and 2.93 HO-1/GAPDH mRNA and 2.58 HO-1/GAPDH mRNA and 2.41 HO-1/GAPDH mRNA
- HO-1 mRNA induction overnight post injection, Average ([3]; Ovnt (roughly 18 hrs) IV, 1 mg Myoglobin, 1 μmole SnPP, average): 0.58 HO-1/GAPDH mRNA
- HO-1 mRNA induction overnight post injection, individual subjects ([3]; Ovnt (roughly 18 hrs) IV, 1 mg Myoglobin, 1 μmole SnPP, single animals): 0.71 HO-1/GAPDH mRNA and 0.53 HO-1/GAPDH mRNA and 0.51 HO-1/GAPDH mRNA
- Plasma LDH, Average [4]: 4.47 Absorbance U LDH/ml
- HO-1 Protein Expression (by ELISA), Average ([5]; Cortex, 4 hr IV, average): 45.4 ng HO-1/mg protein
- HO-1 Protein Expression (by ELISA), individual mice ([5]; Cortex, 4 hr IV, single animals): 36.0 ng HO-1/mg protein and 40.7 ng HO-1/mg protein and 40.2 ng HO-1/mg protein and 64.7 ng HO-1/mg protein
- HO-1 protein induction overnight post injection, Average ([5]; Ovnt (roughly 18 hrs) IV, average, in ng/mg protein): 36.7
- HO-1 protein induction overnight post injection, individual subjects ([5]; Ovnt (roughly 18 hrs) IV, single animals, in ng/mg protein): 50.6 and 34.9 and 24.6
